Experimental findings from patent US20240398973A1, “ENGINEERED ANTIBODY COMPOUNDS AND CONJUGATES THEREOF” (Eli Lilly and Company, priority 2017, published 2024) are described below.

Like-named read-outs stand apart in the source and are kept apart here.

The target of test [1] is formyl peptide receptor 1 (FPR1) on primary human polymorphonuclear neutrophils (human) (UniProt P21462). Briefly: cell-based or functional assay.
Test [2] shares this target. Briefly: cell-based or functional assay. The source holds these as a separate data set.
For test [3], the system named is A549 human lung carcinoma cells. Briefly: PMN-mediated killing of A549 tumor cells (xCelligence). To be noted: 2 hours, mean ± SD, n=4. Type of test: cell-based. The method, then:
Antibody-targeted killing of tumor cells by PMNs is measured using the xCelligence Real Time Cell Analysis system (ACEA Biosciences). This system monitors cell viability in real time by recording electrical impedance between sensors on the growth surface of culture plates. It reports a normalized cell index (NCI) that is normalized to control cells in parallel wells and allows one to control for relative culture viability. NCIs are measured continuously at 15 minute intervals for 24 hours following incubation of tumor cultures with targeted antibodies and addition of human primary PMNs at a 10:1 PMN to tumor cell ratio. Prior to seeding with tumor cells, xCelligence 96-well E-Plates are calibrated for background signal. Each well receives 50 μl of culture medium (RPMI+10% FBS+antibiotics) and the E-plate is equilibrated to 37° C. in a humidified incubator containing the xCelligence plate reader.
After equilibration, E-Plate well variations in background are measured. Cultured tumor cell lines are dissociated, counted and diluted to a final density of 1×10^5 cells/ml in culture medium and 100 μl of diluted tumor cells were plated into E-Plate wells. The E-Plate is returned to the xCelligence reader and cell indices are measured in 15 minute intervals overnight to establish baseline.
The next day, PMNs are isolated from fresh human blood samples and brought to a final density of 2×10^6 cells/ml in culture medium. Following overnight recording, the E-Plate is removed from the xCelligence reader and 22 μl of 10× antibody solution or buffer is added to designated wells. After 15 minutes, 50 μl of diluted PMNs (1×10^5 total cells) or buffer was added to designated wells. Immediately after PMN addition, the E-Plate is returned to the xCelligence reader and cell indices were measured for up to 72 hours. After completion of the experiment, cell indices are normalized (NCI) to the time point immediately preceding the addition of antibodies.
Percent NCI is defined as ((NCI of sample)/(NCI of Tumor Cells Alone)×100). For non-adherent tumor cells (Daudi cells), the xCelligence Immunotherapy Kit-B Cell Killing Assay (ACEA #8100004) is used to tether the tumor cells to E-Plate wells according to manufacturer protocols. Following tethering and background acquisition, the protocols are performed as indicated above.
Adherent MET(+) A549 human lung carcinoma cells are plated for approximately 24 hours, then incubated with Emibetuzumab-G4-fMLFK-HC-124C-375C or emibetuzumab-G4-UC-HC-124C-375C and exposed to primary human PMNs at 10:1 effector to target cell ratio.
Percent NCI values represent relative viability of A549 cells following 2 hours of exposure to the stated conditions. Values are given as mean percentage normalized to “+PMN” control±SD; n=4 for all conditions. Statistical significance was determined by one-way ANOVA followed by post-hoc Dunnett's multiple comparisons test vs “+PMN”. NCI, normalized cell index; PMN, primary human polymorphonuclear neutrophils; ns, not significant.

In test [1], “Emibetuzumab-G4(PAA)-fMLFK-HC-124C-378C (antibody)” returned a PMN ROS production at 1 nM (percent relative to 1000 nM fMLF) of 27.4%, a PMN ROS production at 2 nM (percent relative to 1000 nM fMLF) of 27.4%, a PMN ROS production at 3.9 nM (percent relative to 1000 nM fMLF) of 26.5% and a PMN ROS production at 7.8 nM (percent relative to 1000 nM fMLF) of 27.6%. In addition, in test [1], the PMN ROS production at 15.6 nM (percent relative to 1000 nM fMLF) was 28.3%, the PMN ROS production at 31.3 nM (percent relative to 1000 nM fMLF) came out at 27.9%, the PMN ROS production at 62.5 nM (percent relative to 1000 nM fMLF) was found to be 27.7% and the PMN ROS production at 125 nM (percent relative to 1000 nM fMLF) worked out at 24.7%. Also, in test [1], the PMN ROS production at 250 nM (percent relative to 1000 nM fMLF) came to 29%, the PMN ROS production at 500 nM (percent relative to 1000 nM fMLF) is 53.6% and the PMN ROS production at 1000 nM (percent relative to 1000 nM fMLF) came to 62.2%. Moreover, in test [2], the PMN ROS production at 1 nM (percent relative to 1000 nM fMLF) was determined as 0.6%, the PMN ROS production at 3 nM (percent relative to 1000 nM fMLF) amounted to 0.8%, the PMN ROS production at 12 nM (percent relative to 1000 nM fMLF) was determined as 0.9% and the PMN ROS production at 30 nM (percent relative to 1000 nM fMLF) amounted to 1.8%. In test [2], this molecule gave a PMN ROS production at 100 nM (percent relative to 1000 nM fMLF) of 3.4%, a PMN ROS production at 300 nM (percent relative to 1000 nM fMLF) of 9.1% and a PMN ROS production at 1000 nM (percent relative to 1000 nM fMLF) of 25.3%.

As to “Emibetuzumab-G4(PAA)-fMLFK-HC-378C (antibody)”, in test [1], the PMN ROS production at 1 nM (percent relative to 1000 nM fMLF) worked out at 25.8%, the PMN ROS production at 2 nM (percent relative to 1000 nM fMLF) stood at 27.7%, the PMN ROS production at 3.9 nM (percent relative to 1000 nM fMLF) was found to be 28.2% and the PMN ROS production at 7.8 nM (percent relative to 1000 nM fMLF) amounted to 27.3%. In test [1], this molecule gave a PMN ROS production at 15.6 nM (percent relative to 1000 nM fMLF) of 29.6%, a PMN ROS production at 31.3 nM (percent relative to 1000 nM fMLF) of 24.5%, a PMN ROS production at 62.5 nM (percent relative to 1000 nM fMLF) of 23.4% and a PMN ROS production at 125 nM (percent relative to 1000 nM fMLF) of 23.5%. In test [1], the PMN ROS production at 250 nM (percent relative to 1000 nM fMLF) amounted to 23.9%, the PMN ROS production at 500 nM (percent relative to 1000 nM fMLF) was 38.3% and the PMN ROS production at 1000 nM (percent relative to 1000 nM fMLF) stood at 48.9%. In test [2], this molecule had a PMN ROS production at 1 nM (percent relative to 1000 nM fMLF) of 0.9%, a PMN ROS production at 3 nM (percent relative to 1000 nM fMLF) of 1.8%, a PMN ROS production at 12 nM (percent relative to 1000 nM fMLF) of 0.9% and a PMN ROS production at 30 nM (percent relative to 1000 nM fMLF) of 1.2%. In addition, in test [2], the PMN ROS production at 100 nM (percent relative to 1000 nM fMLF) came to 1%, the PMN ROS production at 300 nM (percent relative to 1000 nM fMLF) worked out at 2.4% and the PMN ROS production at 1000 nM (percent relative to 1000 nM fMLF) turned out to be 2.8%.

B1: Emibetuzumab-G4(PAA)-UC-HC-124C-375C: unconjugated emibetuzumab IgG4(PAA) with HC 124C and 375C; HC SEQ ID NO:4, LC SEQ ID NO:5 (antibody)
heavy: QVQLVQSGAEVKKPGASVKVSCKASGYTFTDYYMHWVRQAPGQGLEWMGRVNPNRRGTTYNQKFEGRVTMTTDTSTSTAYMELRSLRSDDTAVYYCARANWLDYWGQGTTVTVSSASTKGPCVFPLAPCSRSTSESTAALGCLVKDYFPEPVTVSWNSGALTSGVHTFPAVLQSSGLYSLSSVVTVPSSSLGTKTYTCNVDHKPSNTKVDKRVESKYGPPCPPCPAPEAAGGPSVFLFPPKPKDTLMISRTPEVTCVVVDVSQEDPEVQFNWYVDGVEVHNAKTKPREEQFNSTYRVVSVLTVLHQDWLNGKEYKCKVSNKGLPSSIEKTISKAKGQPREPQVYTLPPSQEEMTKNQVSLTCLVKGFYPCDIAVEWESNGQPENNYKTTPPVLDSDGSFFLYSRLTVDKSRWQEGNVFSCSVMHEALHNHYTQKSLSLSLG
light: DIQMTQSPSSLSASVGDRVTITCSVSSSVSSIYLHWYQQKPGKAPKLLIYSTSNLASGVPSRFSGSGSGTDFTLTISSLQPEDFATYYCQVYSGYPLTFGGGTKVEIKRTVAAPSVFIFPPSDEQLKSGTASVVCLLNNFYPREAKVQWKVDNALQSGNSQESVTEQDSKDSTYSLSSTLTLSKADYEKHKVYACEVTHQGLSSPVTKSFNRGEC
modifications: SITE 122 THIOETH - position 122 is cysteine residue modified by thioether bond formation to maleimide-polyethylene glycol (PEG) linker; SITE 370 THIOETH - position 370 is cysteine residue modified by thioether bond formation to maleimide-polyethylene glycol (PEG) linker
As to B1, the “Percent NCI” value in test [3] (A549, 3 nM + PMN) was 102.3 ± 1.7%; in test [3] (A549, 3 nM without PMN), 101.3 ± 0.7%; in test [3] (A549, 10 nM + PMN), 102.5 ± 1.9%; in test [3] (A549, 10 nM + PMN, listed as emibetuzumab-G4-UC-HC-124C-375C), 102.5±1.9%; in test [3] (A549, 10 nM without PMN) it was 100.8 ± 1%; in test [3] (A549, 30 nM + PMN), 102.7 ± 1.5%. In addition, the “Percent NCI” value in test [3] (A549, 30 nM without PMN) was 100.1 ± 0.9%; in test [3] (A549, 100 nM + PMN), 102.9 ± 1.5%; in test [3] (A549, 100 nM without PMN), 100.8 ± 1.4%; in test [3] (A549, 300 nM + PMN), 102.3 ± 1.8%; in test [3] (A549, 300 nM without PMN), 102.8 ± 4.9%.
